Results reported in publication PMC7367873, “Dissecting the sequence determinants for dephosphorylation by the catalytic subunits of phosphatases PP1 and PP2A” (Nature Communications, 2020).

B1: BST2 (protein, UniProt Q10589 1-161, looked up)
Bone marrow stromal antigen 2: MASTSYDYCRVPMEDGDKRCKLLLGIGILVLLIIVILGVPLIIFTIKANSEACRDGLRAVMECRNVTHLLQQELTEAQKGFQDVEAQAATCNHTVMALMASLDAEKAQGQKKVEELEGEITTLNHKLQDASAEVERLRRENQVLSVRIADKKYYPSSQDSS
B2: DNAJC10 (protein, UniProt Q8IXB1 33-793, looked up)
DnaJ homolog subfamily C …: DQDFYSLLGVSKTASSREIRQAFKKLALKLHPDKNPNNPNAHGDFLKINRAYEVLKDEDLRKKYDKYGEKGLEDNQGGQYESWNYYRYDFGIYDDDPEIITLERREFDAAVNSGELWFVNFYSPGCSHCHDLAPTWRDFAKEVDGLLRIGAVNCGDDRMLCRMKGVNSYPSLFIFRSGMAPVKYHGDRSKESLVSFAMQHVRSTVTELWTGNFVNSIQTAFAAGIGWLITFCSKGGDCLTSQTRLRLSGMLDGLVNVGWMDCATQDNLCKSLDITTSTTAYFPPGATLNNKEKNSILFLNSLDAKEIYLEVIHNLPDFELLSANTLEDRLAHHRWLLFFHFGKNENSNDPELKKLKTLLKNDHIQVGRFDCSSAPDICSNLYVFQPSLAVFKGQGTKEYEIHHGKKILYDILAFAKESVNSHVTTLGPQNFPANDKEPWLVDFFAPWCPPCRALLPELRRASNLLYGQLKFGTLDCTVHEGLCNMYNIQAYPTTVVFNQSNIHEYEGHHSAEQILEFIEDLMNPSVVSLTPTTFNELVTQRKHNEVWMVDFYSPWCHPCQVLMPEWKRMARTLTGLINVGSIDCQQYHSFCAQENVQRYPEIRFFPPKSNKAYHYHSYNGWNRDAYSLRIWGLGFLPQVSTDLTPQTFSEKVLQGKNHWVIDFYAPWCGPCQNFAPEFELLARMIKGKVKAGKVDCQAYAQTCQKAGIRAYPTVKFYFYERAKRNFQEEQINTRDAKAIAALISEKLETLRNQGKRNKDEL
B3: SNRPA1 (protein, UniProt P09661 2-255, looked up)
U2 small nuclear …: VKLTAELIEQAAQYTNAVRDRELDLRGYKIPVIENLGATLDQFDAIDFSDNEIRKLDGFPLLRRLKTLLVNNNRICRIGEGLDQALPCLTELILTNNSLVELGDLDPLASLKSLTYLSILRNPVTNKKHYRLYVIYKVPQVRVLDFQKVKLKERQEAEKMFKGKRGAQLAKDIARRSKTFNPGAGLPTDKKKGGPSPGDVEAIKNAIANASTLAEVERLKGLLQSGQIPGRERRSGPTDDGEEEMEEDTVTNGS
B4: SLC1A5 (protein, UniProt Q15758 1-541, looked up)
Neutral amino acid …: MVADPPRDSKGLAAAEPTANGGLALASIEDQGAAAGGYCGSRDQVRRCLRANLLVLLTVVAVVAGVALGLGVSGAGGALALGPERLSAFVFPGELLLRLLRMIILPLVVCSLIGGAASLDPGALGRLGAWALLFFLVTTLLASALGVGLALALQPGAASAAINASVGAAGSAENAPSKEVLDSFLDLARNIFPSNLVSAAFRSYSTTYEERNITGTRVKVPVGQEVEGMNILGLVVFAIVFGVALRKLGPEGELLIRFFNSFNEATMVLVSWIMWYAPVGIMFLVAGKIVEMEDVGLLFARLGKYILCCLLGHAIHGLLVLPLIYFLFTRKNPYRFLWGIVTPLATAFGTSSSSATLPLMMKCVEENNGVAKHISRFILPIGATVNMDGAALFQCVAAVFIAQLSQQSLDFVKIITILVTATASSVGAAGIPAGGVLTLAIILEAVNLPVDHISLILAVDWLVDRSCTVLNVEGDALGAGLLQNYVDRTESRSTEPELIQVKSELPLDPLPVPTEEGNPLLKHYRGPAGDATVASEKESVM
B5: MYBBP1A (protein, UniProt Q9BQG0 1-1328, looked up)
Myb-binding protein 1A: MESRDPAQPMSPGEATQSGARPADRYGLLKHSREFLDFFWDIAKPEQETRLAATEKLLEYLRGRPKGSEMKYALKRLITGLGVGRETARPCYSLALAQLLQSFEDLPLCSILQQIQEKYDLHQVKKAMLRPALFANLFGVLALFQSGRLVKDQEALMKSVKLLQALAQYQNHLQEQPRKALVDILSEVSKATLQEILPEVLKADLNIILSSPEQLELFLLAQQKVPSKLKKLVGSVNLFSDENVPRLVNVLKMAASSVKKDRKLPAIALDLLRLALKEDKFPRFWKEVVEQGLLKMQFWPASYLCFRLLGAALPLLTKEQLHLVMQGDVIRHYGEHVCTAKLPKQFKFAPEMDDYVGTFLEGCQDDPERQLAVLVAFSSVTNQGLPVTPTFWRVVRFLSPPALQGYVAWLRAMFLQPDLDSLVDFSTNNQKKAQDSSLHMPERAVFRLRKWIIFRLVSIVDSLHLEMEEALTEQVARFCLFHSFFVTKKPTSQIPETKHPFSFPLENQAREAVSSAFFSLLQTLSTQFKQAPGQTQGGQPWTYHLVQFADLLLNHSHNVTTVTPFTAQQRQAWDRMLQTLKELEAHSAEARAAAFQHLLLLVGIHLLKSPAESCDLLGDIQTCIRKSLGEKPRRSRTKTIDPQEPPWVEVLVEILLALLAQPSHLMRQVARSVFGHICSHLTPRALQLILDVLNPETSEDENDRVVVTDDSDERRLKGAEDKSEEGEDNRSSESEEESEGEESEEEERDGDVDQGFREQLMTVLQAGKALGGEDSENEEELGDEAMMALDQSLASLFAEQKLRIQARRDEKNKLQKEKALRRDFQIRVLDLVEVLVTKQPENALVLELLEPLLSIIRRSLRSSSSKQEQDLLHKTARIFTHHLCRARRYCHDLGERAGALHAQVERLVQQAGRQPDSPTALYHFNASLYLLRVLKGNTAEGCVHETQEKQKAGTDPSHMPTGPQAASCLDLNLVTRVYSTALSSFLTKRNSPLTVPMFLSLFSRHPVLCQSLLPILVQHITGPVRPRHQACLLLQKTLSMREVRSCFEDPEWKQLMGQVLAKVTENLRVLGEAQTKAQHQQALSSLELLNVLFRTCKHEKLTLDLTVLLGVLQGQQQSLQQGAHSTGSSRLHDLYWQAMKTLGVQRPKLEKKDAKEIPSATQSPISKKRKKKGFLPETKKRKKRKSEDGTPAEDGTPAATGGSQPPSMGRKKRNRTKAKVPAQANGTPTTKSPAPGAPTRSPSTPAKSPKLQKKNQKPSQVNGAPGSPTEPAGQKQHQKALPKKGVLGKSPLSALARKKARLSLVIRSPSLLQSGAKKKAQVRKAGKP
B6: TUBB6 (protein, UniProt Q9BUF5 1-446, looked up)
Tubulin beta-6 chain: MREIVHIQAGQCGNQIGTKFWEVISDEHGIDPAGGYVGDSALQLERINVYYNESSSQKYVPRAALVDLEPGTMDSVRSGPFGQLFRPDNFIFGQTGAGNNWAKGHYTEGAELVDAVLDVVRKECEHCDCLQGFQLTHSLGGGTGSGMGTLLISKIREEFPDRIMNTFSVMPSPKVSDTVVEPYNATLSVHQLVENTDETYCIDNEALYDICFRTLKLTTPTYGDLNHLVSATMSGVTTSLRFPGQLNADLRKLAVNMVPFPRLHFFMPGFAPLTSRGSQQYRALTVPELTQQMFDARNMMAACDPRHGRYLTVATVFRGPMSMKEVDEQMLAIQSKNSSYFVEWIPNNVKVAVCDIPPRGLKMASTFIGNSTAIQELFKRISEQFSAMFRRKAFLHWFTGEGMDEMEFTEAESNMNDLVSEYQQYQDATANDGEEAFEDEEEEIDG
B7: PATL1 (protein, UniProt Q86TB9 1-770, looked up)
Protein PAT1 homolog 1: MFRYESLEDCPLDEDEDAFQGLGEEDEEIDQFNDDTFGSGAVDDDWQEAHERLAELEEKLPVAVNEQTGNGERDEMDLLGDHEENLAERLSKMVIENELEDPAIMRAVQTRPVLQPQPGSLNSSIWDGSEVLRRIRGPLLAQEMPTVSVLEYALPQRPPQGPEDDRDLSERALPRRSTSPIIGSPPVRAVPIGTPPKQMAVPSFTQQILCPKPVHVRPPMPPRYPAPYGERMSPNQLCSVPNSSLLGHPFPPSVPPVLSPLQRAQLLGGAQLQPGRMSPSQFARVPGFVGSPLAAMNPKLLQGRVGQMLPPAPGFRAFFSAPPSATPPPQQHPPGPGPHLQNLRSQAPMFRPDTTHLHPQHRRLLHQRQQQNRSQHRNLNGAGDRGSHRSSHQDHLRKDPYANLMLQREKDWVSKIQMMQLQSTDPYLDDFYYQNYFEKLEKLSAAEEIQGDGPKKERTKLITPQVAKLEHAYKPVQFEGSLGKLTVSSVNNPRKMIDAVVTSRSEDDETKEKQVRDKRRKTLVIIEKTYSLLLDVEDYERRYLLSLEEERPALMDDRKHKICSMYDNLRGKLPGQERPSDDHFVQIMCIRKGKRMVARILPFLSTEQAADILMTTARNLPFLIKKDAQDEVLPCLLSPFSLLLYHLPSVSITSLLRQLMNLPQSAATPALSNPHLTAVLQNKFGLSLLLILLSRGEDLQSSDPATESTQNNQWTEVMFMATRELLRIPQAALAKPISIPTNLVSLFSRYVDRQKLNLLETKLQLVQGIR
B8: FARP1 (protein, UniProt Q9Y4F1 1-1045, looked up)
FERM, ARHGEF and pleckstrin …: MGEIEQRPTPGSRLGAPENSGISTLERGQKPPPTPSGKLVSIKIQMLDDTQEAFEVPQRAPGKVLLDAVCNHLNLVEGDYFGLEFPDHKKITVWLDLLKPIVKQIRRPKHVVVKFVVKFFPPDHTQLQEELTRYLFALQVKQDLAQGRLTCNDTSAALLISHIVQSEIGDFDEALDREHLAKNKYIPQQDALEDKIVEFHHNHIGQTPAESDFQLLEIARRLEMYGIRLHPAKDREGTKINLAVANTGILVFQGFTKINAFNWAKVRKLSFKRKRFLIKLRPDANSAYQDTLEFLMASRDFCKSFWKICVEHHAFFRLFEEPKPKPKPVLFSRGSSFRFSGRTQKQVLDYVKEGGHKKVQFERKHSKIHSIRSLASQPTELNSEVLEQSQQSTSLTFGEGAESPGGQSCRRGKEPKVSAGEPGSHPSPAPRRSPAGNKQADGAASAPTEEEEEVVKDRTQQSKPQPPQPSTGSLTGSPHLSELSVNSQGGVAPANVTLSPNLSPDTKQASPLISPLLNDQACPRTDDEDEGRRKRFPTDKAYFIAKEVSTTERTYLKDLEVITSWFQSTVSKEDAMPEALKSLIFPNFEPLHKFHTNFLKEIEQRLALWEGRSNAQIRDYQRIGDVMLKNIQGMKHLAAHLWKHSEALEALENGIKSSRRLENFCRDFELQKVCYLPLNTFLLRPLHRLMHYKQVLERLCKHHPPSHADFRDCRAALAEITEMVAQLHGTMIKMENFQKLHELKKDLIGIDNLVVPGREFIRLGSLSKLSGKGLQQRMFFLFNDVLLYTSRGLTASNQFKVHGQLPLYGMTIEESEDEWGVPHCLTLRGQRQSIIVAASSRSEMEKWVEDIQMAIDLAEKSSSPAPEFLASSPPDNKSPDEATAADQESEDDLSASRTSLERQAPHRGNTMVHVCWHRNTSVSMVDFSIAVENQLSGNLLRKFKNSNGWQKLWVVFTNFCLFFYKSHQDNHPLASLPLLGYSLTIPSESENIQKDYVFKLHFKSHVYYFRAESEYTFERWMEVIRSATSSASRPHVLSHKESLVY

The molecules below were run on GFP-14-3-3β (assay: GFP-14-3-3β co-IP with LC-MS/MS, untreated GFP-14-3-3β versus GFP control (14-3-3 interactome)). Details: log2 difference; pairwise comparison untreated vs GFP, label-free quantification, 3 replicates each.
Format: binding, human
With B1 the “Difference (log2), untreated vs GFP” value was -3.2427.

Same assay, conditions: pairwise comparison untreated vs GFP
With B2 the “Difference (log2), untreated vs GFP” value was 0.1892 log2. For B3, the “Difference (log2), untreated vs GFP” value was 0.8199 log2. For B4, the “Difference (log2), untreated vs GFP” value was 0.7589 log2. B5 was tested, and the “Difference (log2), untreated vs GFP” value was 2.289 log2. In the case of B6, the “Difference (log2), untreated vs GFP” value is reported as -0.8713 log2. With B7 the “Difference (log2), untreated vs GFP” value was -0.4586 log2. For B8, the “Difference (log2), untreated vs GFP” value was 0.5364 log2.

The molecules below were run on GFP-14-3-3β and its binding proteins (assay: GFP-14-3-3β co-IP with LC-MS/MS label-free quantification, untreated versus PP1c-treated). Details: log2 difference; pairwise comparison PP1 vs untreated, label-free quantification, 3 replicates each.
Design: species or system human
For B1, the “Difference (log2), PP1 vs untreated” value was 1.808.

Same assay, conditions: pairwise comparison PP1 vs untreated
B2 was tested, and the “Difference (log2), PP1 vs untreated” value was -0.01679 log2. B3 was tested, and the “Difference (log2), PP1 vs untreated” value was -0.04086 log2. B4 was tested, and the “Difference (log2), PP1 vs untreated” value was -0.02668 log2. In the case of B5, the “Difference (log2), PP1 vs untreated” value is reported as -0.04518 log2. With B6 the “Difference (log2), PP1 vs untreated” value was -0.03516 log2. B7 was tested, and the “Difference (log2), PP1 vs untreated” value was -0.05274 log2. For B8, the “Difference (log2), PP1 vs untreated” value was -0.03585 log2.
